The source of these data is paper PMC3114554.

Some targets named below: CFP-tagged KCNQ4 (human) (UniProt P56696); CFP-tagged KCNQ2 (human); CFP-tagged KCNQ3 (human) (UniProt O43525).
Common to all, as to test: FRET or BRET
A general note: Bioluminescence resonance energy transfer reports proximity on the nanometre scale.

Chain of UniProt P56696 (P56696 whole entry): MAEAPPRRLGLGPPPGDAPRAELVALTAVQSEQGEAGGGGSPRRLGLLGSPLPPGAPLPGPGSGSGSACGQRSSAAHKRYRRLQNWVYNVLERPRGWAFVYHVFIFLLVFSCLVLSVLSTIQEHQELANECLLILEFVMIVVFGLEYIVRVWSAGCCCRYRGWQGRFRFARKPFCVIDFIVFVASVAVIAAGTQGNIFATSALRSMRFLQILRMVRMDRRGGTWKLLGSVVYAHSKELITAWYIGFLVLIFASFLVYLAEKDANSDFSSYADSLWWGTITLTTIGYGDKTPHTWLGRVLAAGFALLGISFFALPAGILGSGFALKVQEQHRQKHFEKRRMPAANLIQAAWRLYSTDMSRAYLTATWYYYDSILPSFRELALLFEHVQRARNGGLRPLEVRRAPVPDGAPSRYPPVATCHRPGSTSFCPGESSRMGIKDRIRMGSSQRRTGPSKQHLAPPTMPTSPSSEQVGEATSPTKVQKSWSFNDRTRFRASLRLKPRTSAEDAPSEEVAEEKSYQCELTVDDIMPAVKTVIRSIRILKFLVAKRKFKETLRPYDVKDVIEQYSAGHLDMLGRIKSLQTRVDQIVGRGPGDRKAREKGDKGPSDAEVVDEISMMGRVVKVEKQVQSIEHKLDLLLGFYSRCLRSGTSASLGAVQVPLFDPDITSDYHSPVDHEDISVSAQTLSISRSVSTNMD
Chain of UniProt O43525 (O43525 whole entry): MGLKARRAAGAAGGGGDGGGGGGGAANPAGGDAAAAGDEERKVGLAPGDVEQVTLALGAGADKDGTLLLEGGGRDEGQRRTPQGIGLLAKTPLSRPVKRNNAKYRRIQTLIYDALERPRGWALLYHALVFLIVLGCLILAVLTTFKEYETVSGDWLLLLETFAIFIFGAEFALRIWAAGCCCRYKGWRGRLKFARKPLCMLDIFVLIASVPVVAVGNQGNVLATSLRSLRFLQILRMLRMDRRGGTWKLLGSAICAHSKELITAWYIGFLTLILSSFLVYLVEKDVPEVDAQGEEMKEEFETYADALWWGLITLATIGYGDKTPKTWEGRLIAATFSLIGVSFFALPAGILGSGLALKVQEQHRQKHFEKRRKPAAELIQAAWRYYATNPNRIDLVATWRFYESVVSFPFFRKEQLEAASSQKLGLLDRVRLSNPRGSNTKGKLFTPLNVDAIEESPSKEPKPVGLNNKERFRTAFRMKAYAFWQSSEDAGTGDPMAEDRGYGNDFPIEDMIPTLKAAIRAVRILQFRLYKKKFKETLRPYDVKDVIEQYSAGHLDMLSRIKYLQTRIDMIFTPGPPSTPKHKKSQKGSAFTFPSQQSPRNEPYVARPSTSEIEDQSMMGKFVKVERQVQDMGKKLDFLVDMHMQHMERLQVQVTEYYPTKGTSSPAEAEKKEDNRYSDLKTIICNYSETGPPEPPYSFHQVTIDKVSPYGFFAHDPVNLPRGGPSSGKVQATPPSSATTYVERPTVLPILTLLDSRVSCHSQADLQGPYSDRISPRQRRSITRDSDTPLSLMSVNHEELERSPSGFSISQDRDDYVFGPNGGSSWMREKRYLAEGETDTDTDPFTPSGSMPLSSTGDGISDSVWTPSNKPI

Take “YFP-tagged ΔA-AKAP79 (from UniProt P24588 1-427) (natural protein)”: the FRET efficiency in the assay with CFP-tagged KCNQ4 (human) came to 16%; in the assay with CFP-tagged KCNQ2 (human), 17%; with CFP-tagged KCNQ3 (human), 13%.
